# *1 amine or outer side, *2 acyl side, *3 side chain or, on linkers, in order; H or OH if unused. Where no end group is shown, it is not given here. Side-chain parts run from the residue outwards. [ ]: non-standard residue; d: D form. The star is where a group is joined. Butanoyl(4-(4-tBuPh)) = CC(C)(C)c1ccc(CCCC(=O)*)cc1; αMePhe(2-F) = C[C@](N)(Cc1ccccc1F)C(=O)O; γGlu = O=C(O)[C@H](CCC(=O)[*:2])N[*:1]; C14 diacid = O=C(O)CCCCCCCCCCCCC(=O)*; εLys = N[C@@H](CCCCN[*:1])C(=O)[*:2]; αMeY = C[C@](N)(Cc1ccc(O)cc1)C(=O)O; αMeF = C[C@](N)(Cc1ccccc1)C(=O)O; αMeL = CC(C)C[C@](C)(N)C(=O)O; Lauroyl = CCCCCCCCCCCC(=O)*; Orn = NCCC[C@H](N)C(=O)O; Dap = NC[C@H](N)C(=O)O; AEEA = NCCOCCOCC(=O)O; Aib = CC(C)(N)C(=O)O
# B1: Example 165 (peptide)
# peptide: Y[Aib]EGT[αMePhe(2-F)]TSDV[Aib]I[αMeL]LD[Orn]K([εLys-εLys-γGlu-C14 diacid])AQ[Aib]EFI[dE][αMeY]LIEGGK([εLys-εLys-γGlu-C14 diacid])SSGAPPPS-NH2
# modifications: N-terminus assumed
# SMILES: CC[C@H](C)[C@H](NC(=O)[C@H](CC(C)C)NC(=O)[C@](C)(Cc1ccc(O)cc1)NC(=O)[C@@H](CCC(=O)O)NC(=O)[C@@H](NC(=O)[C@H](Cc1ccccc1)NC(=O)[C@H](CCC(=O)O)NC(=O)C(C)(C)NC(=O)[C@H](CCC(N)=O)NC(=O)[C@H](C)NC(=O)[C@H](CCCCNC(=O)[C@@H](N)CCCCNC(=O)[C@@H](N)CCCCNC(=O)CC[C@H](NC(=O)CCCCCCCCCCCCC(=O)O)C(=O)O)NC(=O)[C@H](CCCN)NC(=O)[C@H](CC(=O)O)NC(=O)[C@H](CC(C)C)NC(=O)[C@](C)(CC(C)C)NC(=O)[C@@H](NC(=O)C(C)(C)NC(=O)[C@@H](NC(=O)[C@H](CC(=O)O)NC(=O)[C@H](CO)NC(=O)[C@@H](NC(=O)[C@](C)(Cc1ccccc1F)NC(=O)[C@@H](NC(=O)CNC(=O)[C@H](CCC(=O)O)NC(=O)C(C)(C)NC(=O)[C@@H](N)Cc1ccc(O)cc1)[C@@H](C)O)[C@@H](C)O)C(C)C)[C@@H](C)CC)[C@@H](C)CC)C(=O)N[C@@H](CCC(=O)O)C(=O)NCC(=O)NCC(=O)N[C@@H](CCCCNC(=O)[C@@H](N)CCCCNC(=O)[C@@H](N)CCCCNC(=O)CC[C@H](NC(=O)CCCCCCCCCCCCC(=O)O)C(=O)O)C(=O)N[C@@H](CO)C(=O)N[C@@H](CO)C(=O)NCC(=O)N[C@@H](C)C(=O)N1CCC[C@H]1C(=O)N1CCC[C@H]1C(=O)N1CCC[C@H]1C(=O)N[C@@H](CO)C(N)=O
# B2: Example 175 (peptide)
# peptide: Y[Aib]EGT[αMePhe(2-F)]TSDV[Aib]I[αMeL]LD[Orn]K([AEEA-AEEA-γGlu-Lauroyl])AQ[Aib]EFI[dE][αMeY]LIEGGK([AEEA-AEEA-γGlu-Lauroyl])SSGAPPPS-NH2
# modifications: N-terminus assumed
# SMILES: CCCCCCCCCCCC(=O)N[C@@H](CCC(=O)NCCOCCOCC(=O)NCCOCCOCC(=O)NCCCC[C@H](NC(=O)CNC(=O)CNC(=O)[C@H](CCC(=O)O)NC(=O)[C@@H](NC(=O)[C@H](CC(C)C)NC(=O)[C@](C)(Cc1ccc(O)cc1)NC(=O)[C@@H](CCC(=O)O)NC(=O)[C@@H](NC(=O)[C@H](Cc1ccccc1)NC(=O)[C@H](CCC(=O)O)NC(=O)C(C)(C)NC(=O)[C@H](CCC(N)=O)NC(=O)[C@H](C)NC(=O)[C@H](CCCCNC(=O)COCCOCCNC(=O)COCCOCCNC(=O)CC[C@H](NC(=O)CCCCCCCCCCC)C(=O)O)NC(=O)[C@H](CCCN)NC(=O)[C@H](CC(=O)O)NC(=O)[C@H](CC(C)C)NC(=O)[C@](C)(CC(C)C)NC(=O)[C@@H](NC(=O)C(C)(C)NC(=O)[C@@H](NC(=O)[C@H](CC(=O)O)NC(=O)[C@H](CO)NC(=O)[C@@H](NC(=O)[C@](C)(Cc1ccccc1F)NC(=O)[C@@H](NC(=O)CNC(=O)[C@H](CCC(=O)O)NC(=O)C(C)(C)NC(=O)[C@@H](N)Cc1ccc(O)cc1)[C@@H](C)O)[C@@H](C)O)C(C)C)[C@@H](C)CC)[C@@H](C)CC)[C@@H](C)CC)C(=O)N[C@@H](CO)C(=O)N[C@@H](CO)C(=O)NCC(=O)N[C@@H](C)C(=O)N1CCC[C@H]1C(=O)N1CCC[C@H]1C(=O)N1CCC[C@H]1C(=O)N[C@@H](CO)C(N)=O)C(=O)O
# B3: Example 212 (peptide)
# peptide: YXEGTXTSDVXIXLDXKAQXEFIXXLIEGGKSSGAPPPS
# modifications: Aib2, αMeF(2F)6, αMeS11, αMeL13, Orn16, K17(Z), Aib20, D-Glu24, αMeY25, K31(Z), C-terminal NH2; Z = AEEA2-(γ-Glu)-CO-(CH2)12-CO2H
# B4: Example 201 (peptide)
# peptide: Y[Aib]EGT[αMePhe(2-F)]TSDV[Dap]I[αMeL]LD[Orn]K([AEEA-AEEA-γGlu-C14 diacid])AQ[Aib]EFI[dE][αMeY]LIEGGK([AEEA-AEEA-γGlu-C14 diacid])SSGAPPPS-NH2
# modifications: N-terminus assumed
# SMILES: CC[C@H](C)[C@H](NC(=O)[C@H](CC(C)C)NC(=O)[C@](C)(Cc1ccc(O)cc1)NC(=O)[C@@H](CCC(=O)O)NC(=O)[C@@H](NC(=O)[C@H](Cc1ccccc1)NC(=O)[C@H](CCC(=O)O)NC(=O)C(C)(C)NC(=O)[C@H](CCC(N)=O)NC(=O)[C@H](C)NC(=O)[C@H](CCCCNC(=O)COCCOCCNC(=O)COCCOCCNC(=O)CC[C@H](NC(=O)CCCCCCCCCCCCC(=O)O)C(=O)O)NC(=O)[C@H](CCCN)NC(=O)[C@H](CC(=O)O)NC(=O)[C@H](CC(C)C)NC(=O)[C@](C)(CC(C)C)NC(=O)[C@@H](NC(=O)[C@H](CN)NC(=O)[C@@H](NC(=O)[C@H](CC(=O)O)NC(=O)[C@H](CO)NC(=O)[C@@H](NC(=O)[C@](C)(Cc1ccccc1F)NC(=O)[C@@H](NC(=O)CNC(=O)[C@H](CCC(=O)O)NC(=O)C(C)(C)NC(=O)[C@@H](N)Cc1ccc(O)cc1)[C@@H](C)O)[C@@H](C)O)C(C)C)[C@@H](C)CC)[C@@H](C)CC)C(=O)N[C@@H](CCC(=O)O)C(=O)NCC(=O)NCC(=O)N[C@@H](CCCCNC(=O)COCCOCCNC(=O)COCCOCCNC(=O)CC[C@H](NC(=O)CCCCCCCCCCCCC(=O)O)C(=O)O)C(=O)N[C@@H](CO)C(=O)N[C@@H](CO)C(=O)NCC(=O)N[C@@H](C)C(=O)N1CCC[C@H]1C(=O)N1CCC[C@H]1C(=O)N1CCC[C@H]1C(=O)N[C@@H](CO)C(N)=O
# B5: Example 164 (peptide)
# peptide: Y[Aib]EGT[αMePhe(2-F)]TSDV[Aib]I[αMeL]LD[Orn]K([εLys-γGlu-C14 diacid])AQ[Aib]EFI[dE][αMeY]LIEGGK([εLys-γGlu-C14 diacid])SSGAPPPS-NH2
# modifications: N-terminus assumed
# SMILES: CC[C@H](C)[C@H](NC(=O)[C@H](CC(C)C)NC(=O)[C@](C)(Cc1ccc(O)cc1)NC(=O)[C@@H](CCC(=O)O)NC(=O)[C@@H](NC(=O)[C@H](Cc1ccccc1)NC(=O)[C@H](CCC(=O)O)NC(=O)C(C)(C)NC(=O)[C@H](CCC(N)=O)NC(=O)[C@H](C)NC(=O)[C@H](CCCCNC(=O)[C@@H](N)CCCCNC(=O)CC[C@H](NC(=O)CCCCCCCCCCCCC(=O)O)C(=O)O)NC(=O)[C@H](CCCN)NC(=O)[C@H](CC(=O)O)NC(=O)[C@H](CC(C)C)NC(=O)[C@](C)(CC(C)C)NC(=O)[C@@H](NC(=O)C(C)(C)NC(=O)[C@@H](NC(=O)[C@H](CC(=O)O)NC(=O)[C@H](CO)NC(=O)[C@@H](NC(=O)[C@](C)(Cc1ccccc1F)NC(=O)[C@@H](NC(=O)CNC(=O)[C@H](CCC(=O)O)NC(=O)C(C)(C)NC(=O)[C@@H](N)Cc1ccc(O)cc1)[C@@H](C)O)[C@@H](C)O)C(C)C)[C@@H](C)CC)[C@@H](C)CC)C(=O)N[C@@H](CCC(=O)O)C(=O)NCC(=O)NCC(=O)N[C@@H](CCCCNC(=O)[C@@H](N)CCCCNC(=O)CC[C@H](NC(=O)CCCCCCCCCCCCC(=O)O)C(=O)O)C(=O)N[C@@H](CO)C(=O)N[C@@H](CO)C(=O)NCC(=O)N[C@@H](C)C(=O)N1CCC[C@H]1C(=O)N1CCC[C@H]1C(=O)N1CCC[C@H]1C(=O)N[C@@H](CO)C(N)=O
# B6: Example 176 (peptide)
# peptide: Y[Aib]EGT[αMeF]TSDV[Aib]I[αMeL]LD[Orn]K([AEEA-AEEA-γGlu-Lauroyl])AQ[Aib]EFI[dE][αMeY]LIEGGK([AEEA-AEEA-γGlu-Lauroyl])SSGAPPPS-NH2
# modifications: N-terminus assumed
# SMILES: CCCCCCCCCCCC(=O)N[C@@H](CCC(=O)NCCOCCOCC(=O)NCCOCCOCC(=O)NCCCC[C@H](NC(=O)CNC(=O)CNC(=O)[C@H](CCC(=O)O)NC(=O)[C@@H](NC(=O)[C@H](CC(C)C)NC(=O)[C@](C)(Cc1ccc(O)cc1)NC(=O)[C@@H](CCC(=O)O)NC(=O)[C@@H](NC(=O)[C@H](Cc1ccccc1)NC(=O)[C@H](CCC(=O)O)NC(=O)C(C)(C)NC(=O)[C@H](CCC(N)=O)NC(=O)[C@H](C)NC(=O)[C@H](CCCCNC(=O)COCCOCCNC(=O)COCCOCCNC(=O)CC[C@H](NC(=O)CCCCCCCCCCC)C(=O)O)NC(=O)[C@H](CCCN)NC(=O)[C@H](CC(=O)O)NC(=O)[C@H](CC(C)C)NC(=O)[C@](C)(CC(C)C)NC(=O)[C@@H](NC(=O)C(C)(C)NC(=O)[C@@H](NC(=O)[C@H](CC(=O)O)NC(=O)[C@H](CO)NC(=O)[C@@H](NC(=O)[C@](C)(Cc1ccccc1)NC(=O)[C@@H](NC(=O)CNC(=O)[C@H](CCC(=O)O)NC(=O)C(C)(C)NC(=O)[C@@H](N)Cc1ccc(O)cc1)[C@@H](C)O)[C@@H](C)O)C(C)C)[C@@H](C)CC)[C@@H](C)CC)[C@@H](C)CC)C(=O)N[C@@H](CO)C(=O)N[C@@H](CO)C(=O)NCC(=O)N[C@@H](C)C(=O)N1CCC[C@H]1C(=O)N1CCC[C@H]1C(=O)N1CCC[C@H]1C(=O)N[C@@H](CO)C(N)=O)C(=O)O
# Molecular target: T1, human glucose-dependent insulinotropic polypeptide (GIP) receptor (human, UniProt P48546 22-466)
# T1 sequence (looked up): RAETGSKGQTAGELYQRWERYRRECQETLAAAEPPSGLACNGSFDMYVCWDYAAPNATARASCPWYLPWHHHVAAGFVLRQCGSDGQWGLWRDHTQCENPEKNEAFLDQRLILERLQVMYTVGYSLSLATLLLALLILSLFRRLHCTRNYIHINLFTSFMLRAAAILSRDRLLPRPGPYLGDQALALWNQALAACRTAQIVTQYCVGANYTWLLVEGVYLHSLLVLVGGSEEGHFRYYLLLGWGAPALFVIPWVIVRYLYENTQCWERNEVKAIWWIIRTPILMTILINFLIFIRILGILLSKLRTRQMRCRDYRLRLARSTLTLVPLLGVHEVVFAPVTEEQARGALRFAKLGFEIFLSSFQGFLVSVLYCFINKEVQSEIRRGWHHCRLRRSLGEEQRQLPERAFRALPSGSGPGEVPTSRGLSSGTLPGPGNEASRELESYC
# Assay: cell-based or functional assay
Binder,cAMP EC50 [nM],cAMP Emax [%]
Y[Aib]EGT[αMePhe(2-F)]TSDV[Aib]I[αMeL]LD[Orn]K([AEEA-AEEA-γGlu-Butanoyl(4-(4-tBuPh))])AQ[Aib]EFI[dE][αMeY]LIEGGK([AEEA-AEEA-γGlu-Butanoyl(4-(4-tBuPh))])SSGAPPPS-NH2 [Example 177],0.0433,113
B1,0.0442,96.1
B2,0.0337,100
Y[Aib]EGT[αMePhe(2-F)]TSDV[Aib]I[αMeL]LD[Orn]K([AEEA-AEEA-εLys-C14 diacid])AQ[Aib]EFI[dE][αMeY]LIEGGK([AEEA-AEEA-εLys-C14 diacid])SSGAPPPS-NH2 [Example 163],0.0427,98.2
B3,0.0385,100
B4,0.188,92.2
B5,0.0464,95.8
B6,0.0485,89.3

# Molecular target: human glucagon-like peptide-1 (GLP-1) receptor (human, UniProt P43220 24-463)
# Assay: cell-based or functional assay
Binder,cAMP EC50 [nM],cAMP Emax [%]
Y[Aib]EGT[αMePhe(2-F)]TSDV[Aib]I[αMeL]LD[Orn]K([AEEA-AEEA-γGlu-Butanoyl(4-(4-tBuPh))])AQ[Aib]EFI[dE][αMeY]LIEGGK([AEEA-AEEA-γGlu-Butanoyl(4-(4-tBuPh))])SSGAPPPS-NH2 [Example 177],0.178,–
B1,0.291,–
B2,0.227,91.1
Y[Aib]EGT[αMePhe(2-F)]TSDV[Aib]I[αMeL]LD[Orn]K([AEEA-AEEA-εLys-C14 diacid])AQ[Aib]EFI[dE][αMeY]LIEGGK([AEEA-AEEA-εLys-C14 diacid])SSGAPPPS-NH2 [Example 163],0.199,86.3
B3,0.265,–
B4,0.487,–
B5,0.236,–
B6,0.298,–
